Molecular target: GST-FoxO1 DBD (Homo sapiens, UniProt Q12778 151-266)
Assay: EMSA; 1 µM protein, 1 nM DNA, 1 ng/mL poly dI-dC; 20 mM Tris pH 8.0, 50 mM KCl, 5% glycerol, 2 mM DTT, 0.2 mM EDTA, 2 mM MgCl2, 0.1 mg/mL BSA, 1 ng/mL poly dI-dC; RT 30 min; 6% gel in 0.5X TBE at 4 °C
Details: protein: recombinant; tags: GST (pDEST15, N-terminal); blunt

Chain of GST-FoxO1 DBD (Q12778 151-266): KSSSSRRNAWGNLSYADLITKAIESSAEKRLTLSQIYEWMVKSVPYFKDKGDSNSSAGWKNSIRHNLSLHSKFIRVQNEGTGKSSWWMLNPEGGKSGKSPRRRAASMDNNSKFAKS

B1: FoxO DBE duplex (dsDNA)
DNA 1: CAAAATGTAAACAAGA
DNA 2: TCTTGTTTACATTTTG
  binding result: binds
